Data published in publication PMC9181416.

Molecular target: PIN1 HL-1, fragment of the PIN1 hydrophilic loop, amino acids 289-451 (Arabidopsis thaliana) (UniProt Q9C6B8)
Experiment: AUC; sedimentation velocity, 42,000 rpm, 20 °C, 50 mM NaP pH 7.4, 150 mM NaCl, absorbance at 280 nm, c(s) distribution (SEDFIT); PIN1 HL-1 at 1.26 mg/mL; monomer to dimer

For “PIN1 HL-1, fragment of the PIN1 hydrophilic loop, amino acids 289-451 (from UniProt Q9C6B8 289-451) (domain or fragment)”, the stoichiometry N was 2.
